From patent publication US11548914B2, “IL-2Rgamma binding compounds” (MEDIKINE, INC., priority 2018, dated 2023)
Ends that are not written are not given here.

Assays:
[1] = molecular target: T1, IL-2Rγc subunit (Homo sapiens, UniProt P31785); test: competitive binding of synthetic peptides against phage clones on IL-2Rγc; details: for competition with phage clone peptide SEQ ID NO 198: phage family 1A; for competition with phage clone peptide SEQ ID NO 224: phage family 1B; for competition with phage clone peptide SEQ ID NO 236: phage family 2; for competition with phage clone peptide SEQ ID NO 248: phage family 3; for competition with phage clone peptide SEQ ID NO 266: phage family 4; for competition with phage clone peptide SEQ ID NO 948: phage family 5
T1 construct: Fc; purchased ACRObiosystems, Inc. ILG-H5256
T1 sequence (P31785 23-254): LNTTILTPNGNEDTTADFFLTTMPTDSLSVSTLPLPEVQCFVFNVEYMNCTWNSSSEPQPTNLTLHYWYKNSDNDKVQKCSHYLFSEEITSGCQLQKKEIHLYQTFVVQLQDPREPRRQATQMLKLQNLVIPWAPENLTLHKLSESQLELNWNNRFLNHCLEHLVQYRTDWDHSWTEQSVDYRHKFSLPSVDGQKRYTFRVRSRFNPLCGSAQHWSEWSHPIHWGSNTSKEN
Experimental: (§1) Representative phage clones displaying peptides from IL-2Rβ ligand families were bound to the extracellular domain (ECD) of IL-2Rβ immobilized in microtiter wells. Phage binding was conducted in the presence and absence of synthetic test peptides to determine if phage peptides and test peptides competed for binding to the same sites on IL-2Rβ . Synthetic test peptides were selected to represent peptides from IL-2Rβ ligand families, as well positive and negative control peptides.
(§2) Phage binding to the immobilized IL-2Rβ ECD was detected by staining with antibody against phage coat proteins (anti-phage Ab), staining with labeled secondary antibody against the anti-phage Ab, and scored by reading OD in the microtiter plate optical reader.
(§3) The ELISA signal for each phage binding in the presence and absence of the test peptides was compared to determine which synthetic peptides competed with which phage peptides for binding to the IL-2Rβ subunit.
A similar study was performed to evaluate the binding of IL-2Rγc ligands.

[2] = molecular target: T2, extracellular domain (ECD) of IL-2Rβ (Homo sapiens, UniProt P14784); test: competitive binding of synthetic peptides against phage clones on IL-2Rβ; details: for competition with phage clone peptide SEQ ID NO: 58: phage family 1; for competition with phage clone peptide SEQ ID NO: 170: phage family 2A; for competition with phage clone peptide SEQ ID NO: 83: phage family 2B; for competition with phage clone peptide SEQ ID NO: 1034: phage family 2C; for competition with phage clone peptide SEQ ID NO: 1044: phage family 4
T2 construct: Fc; purchased ACRObiosystems, Inc. ILB-H5253
T2 sequence (P14784 27-239): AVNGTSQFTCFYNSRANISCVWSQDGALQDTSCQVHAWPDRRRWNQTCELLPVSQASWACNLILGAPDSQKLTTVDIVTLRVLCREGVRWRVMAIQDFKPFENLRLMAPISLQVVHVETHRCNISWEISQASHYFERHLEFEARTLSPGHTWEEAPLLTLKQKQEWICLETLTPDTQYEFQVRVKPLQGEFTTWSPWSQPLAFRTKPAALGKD
Experimental: as §1, §2, §3

[3] = system: NK-92 cells; test: STAT5 phosphorylation in NK-92 cells; assay type: cell-based, human; details: NK-92 cells, 10, 1, 0.1 μM, 30 min
Experimental: NK-92 cells were seeded in a 24-well plate at 4×10^5 cells, in 1 mL starvation medium (SM), and incubated overnight at 37° C., 5% CO2. The starvation medium contained RPMI 1640+20% FBS+2 mM L-glutamine+1 mM NaPyr+10 mM HEPES+0.1 mM BME (no rhIL-2 supplement).
Treatment mixtures were of 1 μg/mL Anti-hIL-2 neutralizing antibody (0.2 mg/mL stock) or goat IgG control (1 mg/mL stock) were prepared.
The treatment mixtures and the antibody mix were added to the cells for 30 min at 37° C., 5% CO2. Each sample was then transferred to a 1.5 mL microfuge tube and spun down at 1,500 RPM for 5 minutes. The cells were washed in 1 mL PBS and centrifuged again.
A phosphatase and protease inhibitor cocktail (Thermo #78442) were added to mPER buffer at a 1:100 dilution. After the cells were pelleted, 50 μL of mPER buffer was added to each sample and pipetted repeatedly to homogenize.
The lysates were centrifuged at 14,000 RPM for 5 min at RT. The supernatants were transferred to clean tubes and stored frozen at −80° C.
The treatment reagents included Anti-STAT5 Antibody (rabbit), Cell Signaling No. 94205S; Anti-pSTAT5 Antibody (rabbit), Cell Signaling No. 4322S; and Goat anti-rabbit IgG-HRP, Jackson Immunoresearch No. 111-035-144.

Row | competition with phage clone peptide SEQ ID NO 198 [1] | competition with phage clone peptide SEQ ID NO 224 [1] | competition with phage clone peptide SEQ ID NO 236 [1] | competition with phage clone peptide SEQ ID NO 248 [1] | competition with phage clone peptide SEQ ID NO 266 [1] | competition with phage clone peptide SEQ ID NO 948 [1] | competition with phage clone peptide SEQ ID NO: 58 [2] | competition with phage clone peptide SEQ ID NO: 170 [2] | competition with phage clone peptide SEQ ID NO: 83 [2] | competition with phage clone peptide SEQ ID NO: 1034 [2] | competition with phage clone peptide SEQ ID NO: 1044 [2] | Substance | further results
1 |  |  |  |  |  |  |  |  |  |  |  | 58 (YDCRIAQVGELCDL) [compound 58] | competition for binding to the IL-2Rγc binding site with the group of IL-2Rγc ligands [1]: does not compete
2 |  |  |  |  |  |  | + (Peptide competes with phage binding.) | + (Peptide competes with phage binding.) | + (Peptide competes with phage binding.) | + (Peptide competes with phage binding.) | − | 169 (NMCLVGDYWPSCQI) [Peptide 169] | 
3 | + (Peptide competes with phage binding.) | + (Peptide competes with phage binding.) | + (Peptide competes with phage binding.) | + (Peptide competes with phage binding.) | + (Peptide competes with phage binding.) | − | − | − | − | − | − | 224 (DCSMWEGVELCW) [Peptide 224] | 
4 |  |  |  |  |  |  |  |  |  |  |  | 224 (DCSMWEGVELCW) [compound 224] | competition for binding to the IL-2Rβ binding site with the group of IL-2Rβ ligands [2]: does not compete
5 | + (Peptide competes with phage binding.) | + (Peptide competes with phage binding.) | + (Peptide competes with phage binding.) | + (Peptide competes with phage binding.) | + (Peptide competes with phage binding.) | − |  |  |  |  |  | 236 (MCWLEWGEWVGSCL) [Peptide 236] | 
6 | + (Peptide competes with phage binding.) | + (Peptide competes with phage binding.) | + (Peptide competes with phage binding.) | + (Peptide competes with phage binding.) | + (Peptide competes with phage binding.) | − |  |  |  |  |  | 248 (DLSDLCTFWLSQ) [Peptide 248] | 
7 | −^2 | − | − | − | − | + (Peptide competes with phage binding.) |  |  |  |  |  | 948 (SLLKCYNASTCASVF) [Peptide 948] | 
8 |  |  |  |  |  |  |  |  |  |  |  | 948 (SLLKCYNASTCASVF) [compound 948] | competition for binding to the IL-2Rγc binding site with the group of IL-2Rγc ligands [1]: does not compete
9 |  |  |  |  |  |  | + (Peptide competes with phage binding.) | + (Peptide competes with phage binding.) | + (Peptide competes with phage binding.) | + (Peptide competes with phage binding.) | − | 1042 (CYEVGDYCQSPL) [Peptide 1042] | 
10 |  |  |  |  |  |  | −^2 | − | − | − | − | 1044 (RSCYYKRPRLWCSE) [Peptide 1044] | 
11 |  |  |  |  |  |  |  |  |  |  |  | 1044 (RSCYYKRPRLWCSE) [compound 1044] | competition for binding to the IL-2Rβ binding site with the group of IL-2Rβ ligands [2]: does not compete
12 |  |  |  |  |  |  |  |  |  |  |  | Compound A: heterodimer of SEQ. ID. NO: 58 and SEQ ID. NO. 224 (chain 1 YDCRIAQVGELCDL; chain 2 DCSMWEGVELCW; cysteine pairing not given here; also: heterodimer, linkage not given here) | STAT5 phosphorylation (pSTAT5), Western Blot [3]: induced (in a dose-responsive manner) STAT5 phosphorylation
13 |  |  |  |  |  |  |  |  |  |  |  | Compound B: heterodimer of SEQ. ID. NO: 58 and SEQ ID. NO. 237 (chain 1 YDCRIAQVGELCDL; chain 2 LCFSEFLGEWVDCN; cysteine pairing not given here; also: heterodimer, linkage not given here) | STAT5 phosphorylation (pSTAT5), Western Blot [3]: induced (in a dose-responsive manner) STAT5 phosphorylation

Row | Substance | competition with phage clone peptide SEQ ID NO 198 [1] | competition with phage clone peptide SEQ ID NO 224 [1] | competition with phage clone peptide SEQ ID NO 236 [1] | competition with phage clone peptide SEQ ID NO 248 [1] | competition with phage clone peptide SEQ ID NO 266 [1] | competition with phage clone peptide SEQ ID NO 948 [1] | competition with phage clone peptide SEQ ID NO: 58 [2] | competition with phage clone peptide SEQ ID NO: 170 [2] | competition with phage clone peptide SEQ ID NO: 83 [2] | competition with phage clone peptide SEQ ID NO: 1034 [2] | competition with phage clone peptide SEQ ID NO: 1044 [2] | further results
14 | 58 (YDCRIAQVGELCDL) [Peptide 58] | − | − | − | − | − | − | +^1 (Peptide competes with phage binding.) | + (Peptide competes with phage binding.) | + (Peptide competes with phage binding.) | + (Peptide competes with phage binding.) | − | 
15 | 202 (RTCTEWENVVLCWV) [Peptide 202] | +^1 (Peptide competes with phage binding.) | + (Peptide competes with phage binding.) | + (Peptide competes with phage binding.) | + (Peptide competes with phage binding.) | + (Peptide competes with phage binding.) | − |  |  |  |  |  | 
